Where two headings read alike, the source gives them in different places. Blank lines part the entries; values can stand above or below the molecule they belong to. Square brackets hold non-standard residues; d marks the D form. Ends that are not written are not given here. Peptide text beside a SMILES is read from it. Hyp = O=C(O)[C@@H]1C[C@@H](O)CN1
How the values were obtained:
[1] = biological target: T1, DPP-4 (manufactured by Sigma, derived from porcine kidney) (Sus scrofa, UniProt P22411); assay: DPP-4 inhibition rate and IC50 measurement, fluorescence of AMC freed from Gly-Pro-MCA; assay type: biochemical; conditions: for inhibition at 350 µg/mL / Inhibition rate (%) at 0.35 mg/ml time: sample 0.35 mg/ml, substrate Gly-Pro-MCA, pH 7.5, 37° C.; for inhibition at 350 µg/mL: read-out: Inhibition rate (%) at 0.35 mg/ml time
T1 construct: derived from porcine kidney; purchased Sigma; host or cells: porcine kidney (tissue-derived)
Method: A sample liquid 35 μl obtained by dissolving a sample 1 mg in 50 mM tris-hydrochloric acid buffer (pH 7.5) 1 ml and DPP-4 (manufactured by Sigma, derived from porcine kidney; 8.6 mU/ml) 15 μl that had been dissolved in 50 mM tris-hydrochloric acid buffer (pH 7.5) were mixed in a microtiter plate well (manufactured by NUNC, trade name “237015”) and incubated at 37° C. for 10 minutes.
Thereto, 50 μl of a substrate solution (one obtained by dissolving glycyl-Pro-4-methylcoumarin-7-amide (Gly-Pro-MCA) in 50 mM tris-hydrochloric acid buffer (pH 7.5) so as to be 10 μM) that had in advance heated to and kept at 37° C. was added, mixed, and allowed to react at 37° C. for 20 minutes.
The fluorescence intensity of 7-amino-4-methylcoumarin (AMC) that was freed by DPP-4 was measured with time by a microplate reader type fluorescence detector (manufactured by Corona Electric Co., Ltd., trade name “SH-9000”). Note that the measurement wavelength was an excitation wavelength of 380 nm and a measurement wavelength of 460 nm. Note that one obtained by using the same amount of 50 mM tris-hydrochloric acid buffer (pH 7.5) in replace of the sample was used as a control; and the fluorescence intensity thereof was measured.
The activity of DPP-4 was expressed by an average gradient of change in the amount of the fluorescence intensity during the reaction time; and, as for DPP-4 inhibition rate, difference obtained by, with the control as 100%, subtracting the activity of the sample from the above-mentioned control was calculated as an inhibition rate (%).
In accordance with the above method of measuring a DPP-4 inhibition rate, sample concentration was changed between 0.001 and 7.2 μmol/ml to obtain the inhibition rate, thereby calculating the 50% inhibitory concentration (IC50 value) of the activity of DPP-4.

[2] = biological target: T2, DPP-4 (manufactured by Sigma, derived from porcine kidney) (porcine, UniProt P22411 38-766, limits assumed); assay: cell-based or functional assay
[3] = biological target: T2, DPP-4 (manufactured by Sigma, derived …); assay: cell-based or functional assay; remark: listed apart in the source
[4] = Table 1, sample concentration changed between 0.001 and 7.2 μmol/ml, read-out: IC50 value
[5] = Table 2, sample concentration changed between 0.001 and 7.2 μmol/ml, read-out: IC50 value
[6] = Table 1, sample concentration changed between 0.001 and 7.2 μmol/ml

T1 sequence (P22411 whole entry): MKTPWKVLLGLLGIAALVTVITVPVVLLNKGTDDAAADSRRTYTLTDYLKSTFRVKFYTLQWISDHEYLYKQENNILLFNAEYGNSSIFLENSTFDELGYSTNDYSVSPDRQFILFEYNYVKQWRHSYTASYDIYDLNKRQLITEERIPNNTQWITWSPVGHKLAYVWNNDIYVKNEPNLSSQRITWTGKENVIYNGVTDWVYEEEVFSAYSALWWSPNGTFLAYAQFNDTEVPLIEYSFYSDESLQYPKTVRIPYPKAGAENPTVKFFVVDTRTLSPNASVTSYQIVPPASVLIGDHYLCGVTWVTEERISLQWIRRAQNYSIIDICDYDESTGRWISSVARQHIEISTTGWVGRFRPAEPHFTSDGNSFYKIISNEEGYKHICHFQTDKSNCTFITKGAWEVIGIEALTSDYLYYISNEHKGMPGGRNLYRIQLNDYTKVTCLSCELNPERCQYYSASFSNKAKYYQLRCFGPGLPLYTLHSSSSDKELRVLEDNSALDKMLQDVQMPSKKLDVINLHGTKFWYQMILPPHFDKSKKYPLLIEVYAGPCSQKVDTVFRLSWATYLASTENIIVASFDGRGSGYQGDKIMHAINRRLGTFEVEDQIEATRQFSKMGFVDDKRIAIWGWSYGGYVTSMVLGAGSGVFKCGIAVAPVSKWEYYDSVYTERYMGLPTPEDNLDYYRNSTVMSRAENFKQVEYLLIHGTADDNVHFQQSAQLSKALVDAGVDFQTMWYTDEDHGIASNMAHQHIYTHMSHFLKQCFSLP
T2 sequence (P22411 38-766 limits assumed): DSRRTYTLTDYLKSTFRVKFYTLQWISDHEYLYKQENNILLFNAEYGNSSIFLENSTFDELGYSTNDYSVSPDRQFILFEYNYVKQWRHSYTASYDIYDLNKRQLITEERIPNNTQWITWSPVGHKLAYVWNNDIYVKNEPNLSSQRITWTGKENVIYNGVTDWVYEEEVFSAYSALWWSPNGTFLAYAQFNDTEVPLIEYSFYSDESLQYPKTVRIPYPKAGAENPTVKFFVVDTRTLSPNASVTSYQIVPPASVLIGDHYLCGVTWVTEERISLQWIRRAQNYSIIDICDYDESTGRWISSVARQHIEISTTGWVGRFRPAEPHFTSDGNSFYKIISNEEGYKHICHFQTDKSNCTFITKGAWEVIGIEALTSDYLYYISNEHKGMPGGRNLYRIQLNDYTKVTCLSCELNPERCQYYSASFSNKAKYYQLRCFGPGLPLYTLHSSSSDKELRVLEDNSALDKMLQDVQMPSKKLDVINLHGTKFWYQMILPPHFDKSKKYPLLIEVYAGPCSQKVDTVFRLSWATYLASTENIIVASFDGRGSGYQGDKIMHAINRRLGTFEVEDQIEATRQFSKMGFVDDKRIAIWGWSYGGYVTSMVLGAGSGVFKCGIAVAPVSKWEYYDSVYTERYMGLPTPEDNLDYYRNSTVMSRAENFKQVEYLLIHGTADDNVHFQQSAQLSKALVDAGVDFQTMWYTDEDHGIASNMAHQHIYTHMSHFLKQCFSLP

Molecule: C[C@H](NC(=O)[C@@H]1CCCN1C(=O)CN)C(=O)NCC(=O)N1CCC[C@H]1C(=O)N1C[C@H](O)C[C@H]1C(=O)O [Example 3, Gly-Pro-Ala-Gly-Pro-Hyp] (H-GPAGP[Hyp]-OH; N-terminus and C-terminus assumed)
IC50 [1, 4]: 70 µM

Molecule: C[C@H](NC(=O)CN)C(=O)O [Example 11, Gly-Ala] (H-Gly-Ala-OH; N-terminus and C-terminus assumed)
inhibition at 350 µg/mL ([1]; Table 1): 42.5%
IC50 [1, 4]: 3340 µM

Molecule: CC(C)C[C@H](N)C(=O)N1C[C@H](O)C[C@H]1C(=O)O [Example 20, Leu-Hyp] (H-Leu-[Hyp]-OH)
inhibition at 350 µg/mL ([1]; Table 2): 48.6%

Molecule: CC(C)C[C@H](N)C(=O)N1C[C@H](O)C[C@H]1C(=O)NCC(=O)O [Example 21, Leu-Hyp-Gly] (H-Leu-[Hyp]-Gly-OH)
inhibition at 350 µg/mL ([1]; Table 2): 89.3%
IC50 [1, 5]: 130 µM

Molecule: CC[C@H](C)[C@H](N)C(=O)N1C[C@H](O)C[C@H]1C(=O)NCC(=O)O [Example 22, Ile-Hyp-Gly] (H-Ile-[Hyp]-Gly-OH; N-terminus and C-terminus assumed)
inhibition at 350 µg/mL ([1]; Table 2): 71%
IC50 [1, 5]: 500 µM

Molecule: CC(C)C[C@H](N)C(=O)N1C[C@H](O)C[C@H]1C(=O)NCC(=O)N1CCC[C@H]1C(=O)N[C@@H](C)C(=O)O [Example 23, Leu-Hyp-Gly-Pro-Ala] (H-L[Hyp]GPA-OH)
inhibition at 350 µg/mL ([1]; Table 2): 52.1%
IC50 [1, 5]: 830 µM

Molecule: O=C(O)CNC(=O)[C@@H]1C[C@@H](O)CN1C(=O)[C@@H]1CCCN1 [Example 24, Pro-Hyp-Gly] (H-Pro-[Hyp]-Gly-OH; N-terminus and C-terminus assumed)
inhibition at 350 µg/mL ([1]; Table 2): 27.2%
IC50 [1, 5]: 4640 µM

Molecule: GAIGPA [Example 12, Gly-Ala-Ile-Gly-Pro-Ala]
inhibition at 350 µg/mL ([1]; Table 1): 71.5%
IC50 [1, 4]: 285 µM

Molecule: GAVGPA [Example 14, Gly-Ala-Val-Gly-Pro-Ala]
inhibition at 350 µg/mL ([1]; Table 1): 63.7%
IC50 [1, 4]: 437 µM

Molecule: GPAGPR [Example 2, Gly-Pro-Ala-Gly-Pro-Arg]
IC50 [1, 4]: 80 µM

Molecule: GPIGPV [Example 6, Gly-Pro-Ile-Gly-Pro-Val]
IC50 [1]: 9.3 µM

Molecule: GPLGPV [Example 5, Gly-Pro-Leu-Gly-Pro-Val]
IC50 [1, 4]: 24 µM

Molecule: Gly-Ala-Hyp (Gly-Ala-[Hyp]) [compound 2, reference compound]
Inhibition rate (%) at 0.35 mg/ml time ([1]; Table 1): 0%
IC50 value [1, 6]: No inhibitory

Molecule: Gly-Pro-Hyp (Gly-Pro-[Hyp]) [Comparative Example 1, reference compound]
Inhibition rate (%) at 0.35 mg/ml time ([1]; Table 1): 0%
IC50 value [1, 6]: No inhibitory

Molecule: H-GPAGP-OH [Example 1, Gly-Pro-Ala-Gly-Pro]
inhibition at 350 µg/mL ([1]; Table 1): 95.8%
IC50 [1, 4]: 60 µM

Molecule: APG [Ala-Pro-Gly]
IC50 value [2]: 30 µM
Inhibition rate (%) at 0.35 mg/ml time [2]: 98.7%

Molecule: GAIGPS [Gly-Ala-Ile-Gly-Pro-Ser]
IC50 value [3]: 314 µM
Inhibition rate (%) at 0.35 mg/ml time [3]: 70.4%

Molecule: GPE [Gly-Pro-Glu]
IC50 value [3]: 194 µM
Inhibition rate (%) at 0.35 mg/ml time [3]: 86.4%

Molecule: Phe-[Hyp] [Phe-Hyp]
Inhibition rate (%) at 0.35 mg/ml time [2]: 0%

Molecule: GA [Gly-Ala]
IC50 value [3]: 3340 µM
Inhibition rate (%) at 0.35 mg/ml time [3]: 42.5%

Molecule: LP [Leu-Pro]
IC50 value [2]: 110 µM
Inhibition rate (%) at 0.35 mg/ml time [2]: 92.1%

Molecule: GPAGPI [Gly-Pro-Ala-Gly-Pro-Ile]
IC50 value [3]: 50 µM

Molecule: GPV [Gly-Pro-Val]
IC50 value [3]: 370 µM
Inhibition rate (%) at 0.35 mg/ml time [3]: 76.5%

Molecule: GPAGP[Hyp] [Gly-Pro-Ala-Gly-Pro-Hyp]
IC50 value [3]: 70 µM

Molecule: GPP [Gly-Pro-Pro]
IC50 value [3]: 78200 µM
Inhibition rate (%) at 0.35 mg/ml time [3]: 10.2%

Molecule: L[Hyp]GPA [Leu-Hyp-Gly-Pro-Ala]
IC50 value [2]: 830 µM
Inhibition rate (%) at 0.35 mg/ml time [2]: 52.1%

Molecule: GPIGPV [Gly-Pro-Ile-Gly-Pro-Val]
IC50 value [3]: 9.3 µM

Molecule: Ile-[Hyp]-Gly [Ile-Hyp-Gly]
IC50 value [2]: 500 µM
Inhibition rate (%) at 0.35 mg/ml time [2]: 71%

Molecule: GPAGP [Gly-Pro-Ala-Gly-Pro]
IC50 value [3]: 60 µM
Inhibition rate (%) at 0.35 mg/ml time [3]: 95.8%

Molecule: Ala-[Hyp]-Gly [Ala-Hyp-Gly]
IC50 value [2]: 9450 µM
Inhibition rate (%) at 0.35 mg/ml time [2]: 14.6%

Other lines, results leading:

IC50 [1, 4]: 150 µM
Molecule: C[C@H](NC(=O)[C@@H]1CCCN1C(=O)CN)C(=O)NCC(=O)O [Example 9, Gly-Pro-Ala-Gly] (H-GPAG-OH; N-terminus and C-terminus assumed)

inhibition at 350 µg/mL ([1]; Table 2): 92.1%
IC50 [1, 5]: 110 µM
Molecule: CC(C)C[C@H](N)C(=O)N1CCC[C@H]1C(=O)O [Example 16, Leu-Pro] (H-Leu-Pro-OH; N-terminus and C-terminus assumed)

inhibition at 350 µg/mL ([1]; Table 2): 14.6%
IC50 [1, 5]: 9450 µM
Molecule: C[C@H](N)C(=O)N1C[C@H](O)C[C@H]1C(=O)NCC(=O)O [Example 25, Ala-Hyp-Gly] (H-Ala-[Hyp]-Gly-OH; N-terminus and C-terminus assumed)

inhibition at 350 µg/mL ([1]; Table 1): 70.4%
IC50 [1, 4]: 314 µM
Molecule: GAIGPS [Example 13, Gly-Ala-Ile-Gly-Pro-Ser]

inhibition at 350 µg/mL ([1]; Table 1): 40.9%
IC50 [1, 4]: 1200 µM
Molecule: GAVGP [Example 15, Gly-Ala-Val-Gly-Pro]

IC50 [1, 4]: 50 µM
Molecule: GPAGPI [Example 4, Gly-Pro-Ala-Gly-Pro-Ile]

inhibition at 350 µg/mL ([1]; Table 2): 94.9%
IC50 [1, 5]: 63 µM
Molecule: LPGPA [Example 18, Leu-Pro-Gly-Pro-Ala]

Inhibition rate (%) at 0.35 mg/ml time [3]: 0%
Molecule: Gly-Pro-[Hyp] [Gly-Pro-Hyp]

IC50 value [3]: 150 µM
Molecule: GPAG [Gly-Pro-Ala-Gly]

IC50 value [2]: 1320 µM
Inhibition rate (%) at 0.35 mg/ml time [2]: 48.6%
Molecule: Leu-[Hyp] [Leu-Hyp]

IC50 value [3]: 24 µM
Molecule: GPLGPV [Gly-Pro-Leu-Gly-Pro-Val]

IC50 value [3]: 310 µM
Inhibition rate (%) at 0.35 mg/ml time [3]: 80.2%
Molecule: GPQ [Gly-Pro-Gln]

IC50 value [2]: 4640 µM
Inhibition rate (%) at 0.35 mg/ml time [2]: 27.2%
Molecule: Pro-[Hyp]-Gly [Pro-Hyp-Gly]

IC50 value [3]: 1200 µM
Inhibition rate (%) at 0.35 mg/ml time [3]: 40.9%
Molecule: GAVGP [Gly-Ala-Val-Gly-Pro]

IC50 value [2]: 63 µM
Inhibition rate (%) at 0.35 mg/ml time [2]: 94.9%
Molecule: LPGPA [Leu-Pro-Gly-Pro-Ala]

IC50 value [3]: 285 µM
Inhibition rate (%) at 0.35 mg/ml time [3]: 71.5%
Molecule: GAIGPA [Gly-Ala-Ile-Gly-Pro-Ala]

IC50 value [2]: 130 µM
Inhibition rate (%) at 0.35 mg/ml time [2]: 89.3%
Molecule: Leu-[Hyp]-Gly [Leu-Hyp-Gly]

Inhibition rate (%) at 0.35 mg/ml time [3]: 0%
Molecule: Gly-Ala-[Hyp] [Gly-Ala-Hyp]

IC50 value [3]: 80 µM
Molecule: GPAGPR [Gly-Pro-Ala-Gly-Pro-Arg]

IC50 value [2]: 50 µM
Molecule: LPG [Leu-Pro-Gly]

IC50 value [3]: 437 µM
Inhibition rate (%) at 0.35 mg/ml time [3]: 63.7%
Molecule: GAVGPA [Gly-Ala-Val-Gly-Pro-Ala]

From US9340579B2, “DPP-4 inhibitor” (NIPPI, INCORPORATED, priority 2011, dated 2016)
